Assay results taken from PMC5773694.

Molecular target: T1, Arabidopsis serine/threonine/tyrosine protein kinase (STYK, At2g24360) (Arabidopsis thaliana) (UniProt Q9ZQ31)
T1 sequence: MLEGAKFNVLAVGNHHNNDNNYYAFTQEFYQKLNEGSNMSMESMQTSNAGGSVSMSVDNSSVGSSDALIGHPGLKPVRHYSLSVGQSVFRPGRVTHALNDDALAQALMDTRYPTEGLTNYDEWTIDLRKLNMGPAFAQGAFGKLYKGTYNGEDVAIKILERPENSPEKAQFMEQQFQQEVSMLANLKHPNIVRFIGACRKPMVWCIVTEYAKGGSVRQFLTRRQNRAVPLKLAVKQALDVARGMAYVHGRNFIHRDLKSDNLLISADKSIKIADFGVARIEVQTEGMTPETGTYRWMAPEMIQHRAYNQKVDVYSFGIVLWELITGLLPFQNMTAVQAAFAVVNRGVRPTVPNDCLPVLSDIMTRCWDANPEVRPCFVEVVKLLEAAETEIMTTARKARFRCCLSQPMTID

Row | Binder | Km of STYK for OLE1 as substrate, in vitro kinase assay | Km of STYK for CAL4 as substrate, in vitro kinase assay
1 | Arabidopsis oleosin 1 (OLE1, At4g25140), oleosin 18.5 kDa (natural protein) MADTARGTHHDIIGRDQYPMMGRDRDQYQMSGRGSDYSKSRQIAKAATAVTAGGSLLVLSSLTLVGTVIALTVATPLLVIFSPILVPALITVALLITGFLSSGGFGIAAITVFSWIYKYATGEHPQGSDKLDSARMKLGSKAQDLKDRAQYYGQQHTGGEHDRDRTRGGQHTT | 0.966 µM | –
2 | Arabidopsis caleosin 4 (CAL4, At1g70670), probable peroxygenase 4 (natural protein) MASSISTGVKFVPEEDNFLQRHVAFFDRNKDGIVYPSETFQGFRAIGCGYLLSAVASVFINIGLSSKTRPGKGFSIWFPIEVKNIHLAKHGSDSGVYDKDGRFVASKFEEIFTKHAHTHRDALTNEELKQLLKANKEPNDRKGWLAGYTEWKVLHYLCKDKNGLLHKDTVRAAYDGSLFEKLEKQRSSKTSKKHP | – | 0.997 µM
